In general, Kd refers to the constant that tells how readily two partners part at equilibrium. Low readings indicate tighter binding, high ones weaker binding.

In test [1] the target is HLA-B*07:02. The experiment in a line: IEDB peptide-MHC binding, purified MHC/direct/fluorescence; filed as Kd, often an IC50 or EC50 that approximates it; ≥ and ≤ were set here for values at or beyond the usual limits of such assays. The following applies: source organism: Camelpox virus M-96.
Test [2] addresses HLA-A*31:01. The test is described as above. The following applies: source organism: Camelpox virus M-96.
Test [3] deals with HLA-A*11:01. Described as above. Conditions: source organism: Camelpox virus M-96.
For test [4], the target named is HLA-B*40:01. The description is as above. The following applies: source organism: Camelpox virus M-96.
The next test has as its target HLA-A*26:03. The test is described as above. The following applies: source organism: Variola virus.
The next test has as its target HLA-B*48:01. Described as above. The following applies: source organism: Camelpox virus M-96.
Test [5] deals with HLA-B*58:01. The test is described as above. The following applies: source organism: Camelpox virus M-96.
The next test deals with HLA-B*44:02. Described as above. The following applies: source organism: Camelpox virus M-96.
Test [6] addresses HLA-B*27:05. The test is described as above. The following applies: source organism: Camelpox virus M-96.
For test [7], the target named is HLA-B*18:01. Described as above. Conditions: source organism: Camelpox virus M-96.
The target in the next test is HLA-B*57:01. Described as above. Conditions: source organism: Camelpox virus M-96.
The target of test [8] is HLA-A*69:01. Described as above. Conditions: source organism: Camelpox virus M-96.
In test [9] the target is HLA-A*01:01. The description is as above. The following applies: source organism: Camelpox virus M-96.
Another test addresses HLA-B*15:17. The test is described as follows: IEDB peptide-MHC binding, purified MHC/competitive/fluorescence; filed as Kd, often an IC50 or EC50 that approximates it; ≥ and ≤ were set here for values at or beyond the usual limits of such assays. The following applies: source organism: Vaccinia virus Copenhagen.
The next test has as its target HLA-B*15:09. The description is as above. The following applies: source organism: Vaccinia virus Copenhagen.
In the next test the target is HLA-A*68:02. The test is described as above. Conditions: source organism: Vaccinia virus Copenhagen.
The target in the next test is HLA-B*39:01. The test is described as above. Conditions: source organism: Vaccinia virus Copenhagen.
A further test has as its target HLA-A*30:01. The description is as above.
The next test has as its target HLA-A*02:12. Described as above. Conditions: source organism: Pseudomonas aeruginosa UCBPP-PA14.
Test [10] deals with HLA-B*07:02. The description is as above. The following applies: source organism: Pseudomonas aeruginosa UCBPP-PA14.
Test [11] addresses HLA-A*31:01. The description is as above. The following applies: source organism: Pseudomonas aeruginosa UCBPP-PA14.
In test [12] the target is HLA-A*11:01. Described as above. Conditions: source organism: Pseudomonas aeruginosa UCBPP-PA14.
For test [13], the target named is HLA-B*40:01. Described as above. Conditions: source organism: Pseudomonas aeruginosa UCBPP-PA14.
A further test concerns the target HLA-A*02:06. Described as above. Conditions: source organism: Pseudomonas aeruginosa UCBPP-PA14.
Test [14] addresses HLA-B*58:01. Described as above. Conditions: source organism: Pseudomonas aeruginosa UCBPP-PA14.
Another test deals with HLA-A*02:16. Described as above. The following applies: source organism: Pseudomonas aeruginosa UCBPP-PA14.
The next test concerns the target HLA-A*02:01. The test is described as above. The following applies: source organism: Pseudomonas aeruginosa UCBPP-PA14.
A further test concerns the target HLA-A*24:02. Described as above. Conditions: source organism: Pseudomonas aeruginosa UCBPP-PA14.
Test [15] deals with HLA-B*27:05. The test is described as above. The following applies: source organism: Pseudomonas aeruginosa UCBPP-PA14.
The target of test [16] is HLA-B*18:01. The description is as above. The following applies: source organism: Pseudomonas aeruginosa UCBPP-PA14.
The target of the next test is HLA-B*15:01. The description is as above. The following applies: source organism: Pseudomonas aeruginosa UCBPP-PA14.
A further test addresses HLA-A*03:01. The test is described as above. The following applies: source organism: Pseudomonas aeruginosa UCBPP-PA14.
For the next test, the target named is HLA-B*46:01. The description is as above. Conditions: source organism: Pseudomonas aeruginosa UCBPP-PA14.
In another test the target is HLA-A*02:19. The test is described as above. Conditions: source organism: Pseudomonas aeruginosa UCBPP-PA14.
Test [17] has as its target HLA-A*69:01. The description is as above. Conditions: source organism: Pseudomonas aeruginosa UCBPP-PA14.
Another test deals with HLA-A*02:11. The description is as above. Conditions: source organism: Pseudomonas aeruginosa UCBPP-PA14.
Another test addresses HLA-A*02:50. The description is as above. The following applies: source organism: Pseudomonas aeruginosa UCBPP-PA14.
Another test deals with HLA-A*26:01. The test is described as above. Conditions: source organism: Pseudomonas aeruginosa UCBPP-PA14.
In the next test the target is HLA-B*35:01. Described as above. Conditions: source organism: Pseudomonas aeruginosa UCBPP-PA14.
For test [18], the target named is HLA-A*01:01. The test is described as above. The following applies: source organism: Pseudomonas aeruginosa UCBPP-PA14.

Take LEYGANYFL: the Kd with HLA-B*07:02 [1] was at least 20 µM; with HLA-A*31:01 [2], at least 20 µM; in the test with HLA-A*11:01 [3] it was at least 20 µM; with HLA-B*40:01 [4], 0.0033 µM; in the test with HLA-A*26:03 it was at least 20 µM; with HLA-B*48:01, 4.39 µM. For the same sequence, the Kd is at least 20 µM with HLA-B*58:01 [5]; at least 20 µM with HLA-B*44:02; at least 20 µM in the test with HLA-B*27:05 [6]; 0.0117 µM with HLA-B*18:01 [7]; at least 20 µM in the test with HLA-B*57:01; 1.6 µM with HLA-A*69:01 [8]. Besides, the Kd in the test with HLA-A*01:01 [9] is at least 20 µM; in the test with HLA-B*15:17 it was at least 20 µM; in the test with HLA-B*15:09, at least 20 µM; with HLA-A*68:02, 2.26 µM; with HLA-B*39:01 it was 3 µM; with HLA-A*30:01 (source organism: Vaccinia virus Copenhagen), at least 20 µM.

In the case of FLDDASNSA, the Kd with HLA-A*02:12 is 0.0022 µM; with HLA-B*07:02 [10], at least 20 µM; with HLA-A*31:01 [11] it was at least 20 µM; with HLA-A*11:01 [12], at least 20 µM; in the test with HLA-B*40:01 [13], at least 20 µM; with HLA-A*02:06, 0.0067 µM. Also, the Kd in the test with HLA-B*58:01 [14] is at least 20 µM; with HLA-A*02:16 it was 0.0016 µM; with HLA-A*02:01, 0.0414 µM; with HLA-A*24:02, at least 20 µM; with HLA-B*27:05 [15], at least 20 µM; in the test with HLA-B*18:01 [16] it was at least 20 µM. For the same sequence, the dissociation constant Kd is at least 20 µM with HLA-A*30:01 (source organism: Pseudomonas aeruginosa UCBPP-PA14); at least 20 µM with HLA-B*15:01; at least 20 µM in the test with HLA-A*03:01; at least 20 µM with HLA-B*46:01; 0.1 µM with HLA-A*02:19; 1.01 µM with HLA-A*69:01 [17]. Besides, the Kd was 0.0005 µM in the test with HLA-A*02:11; 0.0053 µM in the test with HLA-A*02:50; at least 20 µM with HLA-A*26:01; at least 20 µM with HLA-B*35:01; at least 20 µM in the test with HLA-A*01:01 [18].
